Reference: patent US20220017612A1 (TILOS THERAPEUTICS, published 2022)

What was measured:
[1] = target: T1, fusion protein of a human IgG1 Fc domain and cynomolgus monkey LAP-TGFβ1 (human; cynomolgus monkey); assay: BLI, 2:1 model, component 1
T1 construct: also called cynomolgus monkey LAP-TGFβ-Fc
Protocol: (§1) The 20E6_H0.2aL1_IgG1 antibody was biotinylated using EZ-Link SulfoNHS-LC-Biotin (ThermoFisher). A streptavidin-functionalized tip was equilibrated in binding buffer (10 mM sodium phosphate, 150 mM sodium chloride, 1% (w/v) bovine serum albumin, 0.05% (w/v) sodium azide, pH 7.4) and dipped in a 10 μg/mL solution of biotinylated anti-LAP in binding buffer for 30 seconds to load the tip with antibody. The antibody-loaded tip was then washed in binding buffer and placed in a solution containing 0-24 nM of a fusion protein having a human IgG1 Fc domain fused to either human LAP-TGFβ1, human LAP-TGFβ2 or human LAP-TGFβ3. The antigen was allowed to bind to antibody for 5 minutes (association phase), and then the tip was moved to binding buffer (dissociation phase). The association and dissociation phases were fit to a 2:1 heterogenous ligand binding model to determine the binding rate constants. As shown in FIG. 21A and Table 17, 20E6_H0.2aL1_IgG1 bound with sub-nanomolar affinity to human LAP-TGFβ1, but not to human LAP-TGFβ2 (FIG. 21B) or LAP-TGFβ3 (FIG. 21C).
(§2) The binding of 20E6_H0.2aL1_IgG1 antibody and 20E6_H0.2aL1_hIgG4mut antibody to LAP-TGFβ1 of various species was examined by bio-layer interferometry using the method described in Example 12, except that the antibody-loaded tip was placed in a solution containing 0-24 nM of a fusion protein having a human IgG1 Fc domain fused to either mouse, rat, cynomolgus monkey, or human LAP-TGFβ1.

[2] = target: T2, fusion protein of a human IgG1 Fc domain and mouse LAP-TGFβ1 (human; mouse, UniProt P04202 30-390); assay: BLI, 2:1 model, component 1
T2 construct: also called mouse LAP-TGFβ-Fc
T2 sequence (P04202 30-390 limits assumed): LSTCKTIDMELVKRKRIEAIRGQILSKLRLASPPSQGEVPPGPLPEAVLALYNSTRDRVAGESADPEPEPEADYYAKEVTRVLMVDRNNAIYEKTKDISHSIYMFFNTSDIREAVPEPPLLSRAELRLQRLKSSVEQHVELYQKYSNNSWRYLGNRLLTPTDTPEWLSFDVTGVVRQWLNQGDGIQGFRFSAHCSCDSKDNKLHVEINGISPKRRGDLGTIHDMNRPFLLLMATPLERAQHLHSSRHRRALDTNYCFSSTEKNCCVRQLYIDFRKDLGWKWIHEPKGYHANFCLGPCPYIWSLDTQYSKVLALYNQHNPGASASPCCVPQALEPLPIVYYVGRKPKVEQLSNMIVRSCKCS
Protocol: as §1, §2

[3] = target: T3, fusion protein of a human IgG1 Fc domain and rat LAP-TGFβ1 (human; rat, UniProt P17246 30-390, limits assumed); assay: BLI, 2:1 model, component 1
T3 construct: also called rat LAP-TGFβ-Fc
T3 sequence (P17246 30-390 limits assumed): as the sequence (P04202 30-390 limits assumed) above, with E93D, S99T, L131F, S134T, K202V counted along it
Protocol: as §1, §2

[4] = target: T4, fusion protein of a human IgG1 Fc domain and human LAP-TGFβ1 (human, UniProt P01137 30-390); assay: BLI, 2:1 model, component 1
T4 construct: printed both as Fc-huB1 and LAP-TGFβ-Fc; also called Fc-huB1; Fc-human LAP
T4 sequence (P01137 30-390 limits assumed): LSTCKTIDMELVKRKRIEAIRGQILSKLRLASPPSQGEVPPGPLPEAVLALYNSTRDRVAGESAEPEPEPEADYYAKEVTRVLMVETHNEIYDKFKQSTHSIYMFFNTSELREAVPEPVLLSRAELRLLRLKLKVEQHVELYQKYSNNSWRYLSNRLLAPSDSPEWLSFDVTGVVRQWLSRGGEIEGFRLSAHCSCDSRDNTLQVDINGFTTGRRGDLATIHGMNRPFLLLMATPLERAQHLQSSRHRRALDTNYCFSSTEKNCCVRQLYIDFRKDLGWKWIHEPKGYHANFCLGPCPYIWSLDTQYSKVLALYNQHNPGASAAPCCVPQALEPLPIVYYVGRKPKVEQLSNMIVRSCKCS
Protocol: as §1, §2

[5] = target: T5, murine LAP-TGFβ1 with a C-terminal polyhistidine purification tag (mouse, UniProt P04202 30-390); assay: BLI, antibody on tip, 1:1 model
T5 construct: also called Mouse LAP-TGFβ1
T5 sequence (P04202 30-390 limits assumed): as the sequence (P04202 30-390 limits assumed) above
Protocol: (§3) The chimeric antibodies were biotinylated using EZ-Link SulfoNHS-LC-Biotin (ThermoFisher). A streptavidin-functionalized tip was equilibrated in binding buffer (10 mM sodium phosphate, 150 mM sodium chloride, 1% (w/v) bovine serum albumin, 0.05% (w/v) sodium azide, pH 7.4). The tip was dipped in a 10 μg/mL solution of biotinylated, chimeric anti-LAP in binding buffer for 15 seconds to load the tip with antibody. The antibody-loaded tip was then washed in binding buffer and placed in a solution containing 0-24 nM of LAP-TGFβ1 (either a fusion protein containing a human IgG1 Fc domain fused to human LAP-TGFβ1 or a murine LAP-TGFβ1 with a C-terminal polyhistidine purification tag). The antigen was allowed to bind to antibody for 5 minutes (association phase), and then the tip was moved to binding buffer (dissociation phase). The association and dissociation phases were fit to a 1:1 binding model to determine the binding rate constants.

[6] = target: T4, fusion protein of a human IgG1 Fc …; assay: BLI, antibody on tip, 1:1 model
Protocol: as §3

| Kd [1] | koff [1] | kon [1] | Kd [2] | koff [2] | kon [2] | Kd [3] | koff [3] | kon [3] | Kd [4] | koff [4] | kon [4] | Kd [5] | koff [5] | kon [5] | Kd [6] | koff [6] | kon [6] | Binder |
| --- | --- | --- | --- | --- | --- | --- | --- | --- | --- | --- | --- | --- | --- | --- | --- | --- | --- | --- |
| 15.8 nM | 0.0394 s⁻¹ | 2.49e+06 M⁻¹ s⁻¹ | 14.2 nM | 0.0343 s⁻¹ | 2.42e+06 M⁻¹ s⁻¹ | 13.4 nM | 0.0441 s⁻¹ | 3.3e+06 M⁻¹ s⁻¹ | 16.5 nM | 0.0355 s⁻¹ | 2.15e+06 M⁻¹ s⁻¹ |  |  |  |  |  |  | 20E6_H0.2aL1_hIgG1 (antibody, also called 20E6_H0.2aL1_IgG1; humanized 20E6) heavy: not shown light: DIQMTQSPSSLSASVGDRVTITCRASQDITNYLNWYQQKPGKAVKLLIYYTSRLHSGVPSRFSGSGSGTDYTLTISSLQPEDFATYFCQQGDTLPWTFGQGTKLEIKRTVAAPSVFIFPPSDEQLKSGTASVVCLLNNFYPREAKVQWKVDNALQSGNSQESVTEQDSKDSTYSLSSTLTLSKADYEKHKVYACEVTHQGLSSPVTKSFNRGEC |
|  |  |  |  |  |  |  |  |  |  |  |  | 0.37 nM | 0.000444 s⁻¹ | 1.21e+06 M⁻¹ s⁻¹ | 0.76 nM | 0.000768 s⁻¹ | 1.01e+06 M⁻¹ s⁻¹ | 22F9_hIgG1 (antibody, V domains shown) VH: QVQLQQPGAELVKPGASVKLSCKASGYTFTSYWMHWVKQRPGQGLEWIGMIHPNSGSTNYNEKFKSKATLTVDKSSSTAYMQLSSLTSEDSAVYYCAYYDYDGFFDVWGTGTTVTVSS VL: DIVLTQSPASLDVSLGQRATISCRASKSVSTSGYSYMHWYQQKSGQPPKLLIYLASNLESGVPARFSGSGSGTHFTLNIHPVEEEDAATYYCQHSRELPYTFGGGTKLEIK |
